Measured values from publication PMC7240154.

Assays:
Experiment in all cases: ITC; Vps4 MIT domain (3 uM in PBS) in the cell, titrated with 19 injections of 10 ul of Vps2/24/46 or Vps20/32/60 (33 uM in PBS) at 2-min intervals; 25°C; ITC200; fits: One Set of Sites or Sequential Binding Sites
[1] = target: Heimdallarchaeota_LC_3 Vps4 MIT domain (Heimdallarchaeota_LC_3)
[2] = target: Lokiarchaeum_GC14_75 Vps4 MIT domain (Lokiarchaeum_GC14_75)
[3] = target: Odinarchaeota_LCB_4 Vps4 MIT domain (Odinarchaeota_LCB_4)

Substance	dH1 (Sequential Binding Sites, site 1) [1]	dH2 (Sequential Binding Sites, site 2) [1]	dH [3]	further results
Heimdallarchaeota_LC_3 Vps2/24/46 (natural protein)	-473 kcal/mol	931 kcal/mol		
Heimdallarchaeota_LC_3 Vps20/32/60 (natural protein)	2780 kcal/mol	-2310 kcal/mol		
Lokiarchaeum_GC14_75 Vps2/24/46 (natural protein)				dH1 (Sequential Binding Sites, site 1) [2]: -121 kcal/mol; dH2 (Sequential Binding Sites, site 2) [2]: 422 kcal/mol
Lokiarchaeum_GC14_75 Vps20/32/60 (natural protein)				dH [2]: 1420 kcal/mol
Odinarchaeota_LCB_4 Vps2/24/46 (natural protein)			392 kcal/mol	
Odinarchaeota_LCB_4 Vps20/32/60 (natural protein)			331 kcal/mol	
